In the array DNA melting data of Ke et al. one finds Tm data, which are given here for 37 substances.

The term Tm denotes the temperature at the midpoint of the melting transition.

This data set is described as follows: melting temperature; UV melt of duplexes.

As for “GCGGATTAGGATCCATATCGCG+CGCGATATGGATCCTAATCCGC ((((((((((((((((((((((+))))))))))))))))))))))”, the Tm (sodium 0.12 M, strand 4 µM) worked out at 65.4 °C.
Consider “AACGCGCGTAGAGTGGCCGCAA+TTGCGGCCACTCTACGCGCGTT ((((((((((((((((((((((+))))))))))))))))))))))”, for which, under “sodium 0.12 M, strand 6 µM”, the Tm came to 77.3 °C.
Still for that read-out and setting: for “AATATGAATTCTAATA+TATTAGAATTCATATT ((((((((((((((((+))))))))))))))))” the value was 41.4 °C.
Turning to “GCCCCTCCACTGGCCGACGGCAGCAGGCTC+GAGCCTGCTGCCGTCGGCCAGTGGAGGGGC ((((((((((((((((((((((((((((((+))))))))))))))))))))))))))))))”, the melting temperature (Tm) (sodium 0.07 M, strand 2 µM) worked out at 76.3 °C; the midpoint of thermal melting (Tm) (sodium 0.12 M, strand 2 µM) turned out to be 79.8 °C; the Tm (sodium 0.22 M, strand 2 µM) came to 83.6 °C; the midpoint of thermal melting (Tm) (sodium 0.62 M, strand 2 µM) is 87.1 °C; the Tm (sodium 1.02 M, strand 2 µM) worked out at 87.7 °C.
For “CTGGTCTGGATCTGAGAACTTCAGG+CCTGAAGTTCTCAGATCCAGACCAG (((((((((((((((((((((((((+)))))))))))))))))))))))))” the same measures were 62.1 °C, 65.8 °C, 69.6 °C, 74.2 °C and 75.6 °C.
Take “GTTCACGTCCGAAAGCTCGAAAAAGGATAC+GTATCCTTTTTCGAGCTTTCGGACGTGAAC ((((((((((((((((((((((((((((((+))))))))))))))))))))))))))))))”: the melting temperature (Tm) turned out to be 64.3 °C (sodium 0.07 M, strand 2 µM); 68.2 °C (sodium 0.12 M, strand 2 µM); 72.1 °C (sodium 0.22 M, strand 2 µM); 77.1 °C (sodium 0.62 M, strand 2 µM); 78.7 °C (sodium 1.02 M, strand 2 µM).
Take “ATAAATTAGGATCCATATAAAT+ATTTATATGGATCCTAATTTAT ((((((((((((((((((((((+))))))))))))))))))))))”: the Tm (sodium 0.12 M, strand 5.8 µM) was 47.7 °C.
Take “TTATGTATTAAGTTATATAGTAGTAGTAGT+ACTACTACTACTATATAACTTAATACATAA ((((((((((((((((((((((((((((((+))))))))))))))))))))))))))))))”: the Tm by setting is: (sodium 0.07 M, strand 2 µM) 50.7 °C; (sodium 0.12 M, strand 2 µM) 55 °C; (sodium 0.22 M, strand 2 µM) 59.3 °C; (sodium 0.62 M, strand 2 µM) 65.1 °C; (sodium 1.02 M, strand 2 µM) 66.6 °C.
For “GTCATACGACTGAGTGCAACATTGTTCAAA+TTTGAACAATGTTGCACTCAGTCGTATGAC ((((((((((((((((((((((((((((((+))))))))))))))))))))))))))))))” the same measures were 62.7 °C, 66.8 °C, 70.8 °C, 75.9 °C and 76.9 °C.
For “CAGCCTCGTTCGCACAGCCC+GGGCTGTGCGAACGAGGCTG ((((((((((((((((((((+))))))))))))))))))))” the same measures were 67.2 °C, 70.7 °C, 74 °C, 77.7 °C and 78.1 °C.
As to “AAATAAATAGCTATTTATTT+AAATAAATAGCTATTTATTT ((((((((((((((((((((+))))))))))))))))))))”, the Tm (sodium 0.12 M, strand 7 µM) came out at 47.1 °C.
With “CCATCATTGTGTCTACCTCA+TGAGGTAGACACAATGATGG ((((((((((((((((((((+))))))))))))))))))))”, the Tm was found to be 55.6 °C (sodium 0.07 M, strand 2 µM); 59.5 °C (sodium 0.12 M, strand 2 µM); 63.1 °C (sodium 0.22 M, strand 2 µM); 67.3 °C (sodium 0.62 M, strand 2 µM); 68.5 °C (sodium 1.02 M, strand 2 µM).
“AAATATAGCTATATTT+AAATATAGCTATATTT ((((((((((((((((+))))))))))))))))”: the midpoint of thermal melting (Tm) (sodium 0.12 M, strand 5 µM) was found to be 40.4 °C.
Regarding “ATGGGTGGGAGCCTCGGTAGCAGCC+GGCTGCTACCGAGGCTCCCACCCAT (((((((((((((((((((((((((+)))))))))))))))))))))))))”, the Tm (sodium 0.07 M, strand 2 µM) is 70.7 °C; the Tm (sodium 0.12 M, strand 2 µM) turned out to be 74.5 °C; the Tm (sodium 0.22 M, strand 2 µM) is 78.2 °C; the Tm (sodium 0.62 M, strand 2 µM) is 81.6 °C; the melting temperature (Tm) (sodium 1.02 M, strand 2 µM) came out at 83.4 °C.
For “CAGTGAGACAGCAATGGTCG+CGACCATTGCTGTCTCACTG ((((((((((((((((((((+))))))))))))))))))))” the same measures were 59.8 °C, 63.5 °C, 67 °C, 71.1 °C and 72.5 °C.
Regarding “AATATATATGAATTCTAATTATAA+TTATAATTAGAATTCATATATATT ((((((((((((((((((((((((+))))))))))))))))))))))))”, the Tm (sodium 0.12 M, strand 4.4 µM) was 46.2 °C.
As to “AACGCCGGTAGAGTGCGCGCAA+TTGCGCGCACTCTACCGGCGTT ((((((((((((((((((((((+))))))))))))))))))))))”, the Tm (sodium 0.12 M, strand 5.9 µM) amounted to 79.1 °C.
In the case of “CGTACTAGCGTTGGTCATGG+CCATGACCAACGCTAGTACG ((((((((((((((((((((+))))))))))))))))))))”, the midpoint of thermal melting (Tm) was found to be 59.6 °C (sodium 0.07 M, strand 2 µM); 63.1 °C (sodium 0.12 M, strand 2 µM); 66.6 °C (sodium 0.22 M, strand 2 µM); 70.5 °C (sodium 0.62 M, strand 2 µM); 71.1 °C (sodium 1.02 M, strand 2 µM).
In the same order, the values of “AGCAGTCCGCCACACCCTGA+TCAGGGTGTGGCGGACTGCT ((((((((((((((((((((+))))))))))))))))))))” are 66.5 °C, 69.9 °C, 74 °C, 76.9 °C and 78.5 °C.
In the same order, the values of “ACGCCCACAGGATTAGGCTGGCCCACATTG+CAATGTGGGCCAGCCTAATCCTGTGGGCGT ((((((((((((((((((((((((((((((+))))))))))))))))))))))))))))))” are 71.3 °C, 74.7 °C, 78.5 °C, 82.7 °C and 84 °C.
Regarding “GATGACGCTAGCTAGCTAGGAC+GTCCTAGCTAGCTAGCGTCATC ((((((((((((((((((((((+))))))))))))))))))))))”, the Tm (sodium 0.15 M, strand 1.1 µM) came out at 64 °C.
Consider “TCAGTAGGCGTGACGCAGAGCTGGCGATGG+CCATCGCCAGCTCTGCGTCACGCCTACTGA ((((((((((((((((((((((((((((((+))))))))))))))))))))))))))))))”, for which the melting temperature (Tm) is 72.2 °C (sodium 0.07 M, strand 2 µM); 75.7 °C (sodium 0.12 M, strand 2 µM); 79.3 °C (sodium 0.22 M, strand 2 µM); 83.3 °C (sodium 0.62 M, strand 2 µM); 84.6 °C (sodium 1.02 M, strand 2 µM).
For “TCCACACGGTAGTAAAATTAGGCTT+AAGCCTAATTTTACTACCGTGTGGA (((((((((((((((((((((((((+)))))))))))))))))))))))))” the same measures were 59.3 °C, 63.1 °C, 67.3 °C, 71.8 °C and 73.8 °C.
In the same order, the values of “CGGAATCCATGTTACTTCGGCTATC+GATAGCCGAAGTAACATGGATTCCG (((((((((((((((((((((((((+)))))))))))))))))))))))))” are 60.9 °C, 64.7 °C, 68.7 °C, 73.3 °C and 74.8 °C.
As for “ATACGCGAGGATCCAGCGCAAT+ATTGCGCTGGATCCTCGCGTAT ((((((((((((((((((((((+))))))))))))))))))))))”, the Tm (sodium 0.12 M, strand 4 µM) is 71.1 °C.
Consider “CAGTGGGCTCCTGGGCGTGCTGGTC+GACCAGCACGCCCAGGAGCCCACTG (((((((((((((((((((((((((+)))))))))))))))))))))))))”, for which the midpoint of thermal melting (Tm) is, setting by setting: (sodium 0.07 M, strand 2 µM) 72 °C; (sodium 0.12 M, strand 2 µM) 75.6 °C; (sodium 0.22 M, strand 2 µM) 79.2 °C; (sodium 0.62 M, strand 2 µM) 82.6 °C; (sodium 1.02 M, strand 2 µM) 83.4 °C.
In the case of “TATGTATATTTTGTAATCAG+CTGATTACAAAATATACATA ((((((((((((((((((((+))))))))))))))))))))”, the Tm reads like this: (sodium 0.07 M, strand 2 µM) 44.4 °C; (sodium 0.12 M, strand 2 µM) 47.7 °C; (sodium 0.22 M, strand 2 µM) 52.6 °C; (sodium 0.62 M, strand 2 µM) 57.6 °C; (sodium 1.02 M, strand 2 µM) 61.2 °C.
In the same order, the values of “CTTAAGATATGAGAACTTCAACTAATGTGT+ACACATTAGTTGAAGTTCTCATATCTTAAG ((((((((((((((((((((((((((((((+))))))))))))))))))))))))))))))” are 56.8 °C, 61.3 °C, 64.9 °C, 70.5 °C and 71.8 °C.
In the case of “GACCTGACGTGGACCGCTCCTGGGCGTGGT+ACCACGCCCAGGAGCGGTCCACGTCAGGTC ((((((((((((((((((((((((((((((+))))))))))))))))))))))))))))))”, the Tm by setting is: (sodium 0.07 M, strand 2 µM) 74.4 °C; (sodium 0.12 M, strand 2 µM) 78.4 °C; (sodium 0.22 M, strand 2 µM) 81.5 °C; (sodium 0.62 M, strand 2 µM) 85.2 °C; (sodium 1.02 M, strand 2 µM) 86.4 °C.
With “GCGGGCGAGGATCCAGCGCGCG+CGCGCGCTGGATCCTCGCCCGC ((((((((((((((((((((((+))))))))))))))))))))))”, the melting temperature (Tm) (sodium 0.12 M, strand 5.3 µM) is 77.2 °C.
As to “AATATATATAGAGTAATTATAA+TTATAATTACTCTATATATATT ((((((((((((((((((((((+))))))))))))))))))))))”, the midpoint of thermal melting (Tm) (sodium 0.12 M, strand 5 µM) was 45.1 °C.
As for “GAGATTGTTTCCCTTTCAAA+TTTGAAAGGGAAACAATCTC ((((((((((((((((((((+))))))))))))))))))))”, the midpoint of thermal melting (Tm) reads like this: (sodium 0.07 M, strand 2 µM) 49.3 °C; (sodium 0.12 M, strand 2 µM) 52.8 °C; (sodium 0.22 M, strand 2 µM) 57.6 °C; (sodium 0.62 M, strand 2 µM) 62.6 °C; (sodium 1.02 M, strand 2 µM) 65.3 °C.
In the same order, the values of “TTCCAAAAGGAGTTATGAGTTGCGA+TCGCAACTCATAACTCCTTTTGGAA (((((((((((((((((((((((((+)))))))))))))))))))))))))” are 59.1 °C, 63 °C, 67.2 °C, 71.6 °C and 73.8 °C.
For the substance “TAGTATATCGCAGCATCATACAGGC+GCCTGTATGATGCTGCGATATACTA (((((((((((((((((((((((((+)))))))))))))))))))))))))”, the Tm came to 61.2 °C (sodium 0.07 M, strand 2 µM); 64.7 °C (sodium 0.12 M, strand 2 µM); 69.1 °C (sodium 0.22 M, strand 2 µM); 72.8 °C (sodium 0.62 M, strand 2 µM); 75 °C (sodium 1.02 M, strand 2 µM).
Consider “AAGCTATATATATCGAT+ATCGATATATATAGCTT (((((((((((((((((+)))))))))))))))))”, for which, under “sodium 0.12 M, strand 5 µM”, the Tm turned out to be 50.2 °C.
As to “AATATATAGCTATCGAT+ATCGATAGCTATATATT (((((((((((((((((+)))))))))))))))))”, the midpoint of thermal melting (Tm) (sodium 0.12 M, strand 4 µM) was 49.7 °C.
“AACGCGTGAATTCTGGCCAA+TTGGCCAGAATTCACGCGTT ((((((((((((((((((((+))))))))))))))))))))”: the Tm (sodium 0.12 M, strand 6 µM) was 66.6 °C.
